Results on six molecules are retold here after publication PMC2903445 (Proteins, 2010).

Some targets named below: Gαi1 K248E, S252L (human, UniProt P63096 26-354, K248E | S252L); Gαi1 I78S, A111Q (human, UniProt P63096 26-354, I78S | A111Q); Gαi1 E245L, L249A (human, UniProt P63096 26-354, E245L | L249A).
What all share (assay): fluorescence polarisation
The target in test [1] is T1, Gαi1 (N-terminal-truncated, hexahistidine-tagged human Gαi1), wild type (human, UniProt P63096 26-354).
Test [2] deals with T2, Gαi1 F223V, L249F (human, UniProt P63096 26-354, F223V | L249F).
T2 sequence (P63096 26-354 F223V/L249F): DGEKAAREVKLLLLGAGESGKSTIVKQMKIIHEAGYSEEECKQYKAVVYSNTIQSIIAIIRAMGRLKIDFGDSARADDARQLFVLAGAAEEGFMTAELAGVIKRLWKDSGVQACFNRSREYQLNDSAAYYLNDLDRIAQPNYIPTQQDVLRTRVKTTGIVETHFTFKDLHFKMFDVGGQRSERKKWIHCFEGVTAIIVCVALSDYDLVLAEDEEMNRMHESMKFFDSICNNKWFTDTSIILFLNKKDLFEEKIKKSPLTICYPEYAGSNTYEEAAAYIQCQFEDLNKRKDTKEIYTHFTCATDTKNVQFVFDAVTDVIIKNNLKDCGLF
In test [3] the target is T2, Gαi1 F223V, L249F. This is another data set of the same source.
The target of test [4] is Gαi1 F223V, L249F, Q147L, E245L (human, UniProt P63096 26-354, F223V | L249F | Q147L | E245L).
Sequence of Gαi1 F223V, L249F, Q147L, E245L (P63096 26-354 Q147L/F223V/E245L/L249F): as the sequence (P63096 26-354 F223V/L249F) above, with Q122L, E220L counted along it
Test [5] deals with T1, Gαi1 (N-terminal-truncated, …). The source holds these as a separate data set.

Where two headings read alike, the source gives them in different places. Ends that are not written are not given here.

T1 sequence (P63096 26-354): as the sequence (P63096 26-354 F223V/L249F) above, with V198F, F224L counted along it
Sequence of Gαi1 K248E, S252L (P63096 26-354 K248E/S252L): as the sequence (P63096 26-354 F223V/L249F) above, with V198F, K223E, F224L, S227L counted along it
Sequence of Gαi1 I78S, A111Q (P63096 26-354 I78S/A111Q): as the sequence (P63096 26-354 F223V/L249F) above, with I53S, A86Q, V198F, F224L counted along it
Sequence of Gαi1 E245L, L249A (P63096 26-354 E245L/L249A): as the sequence (P63096 26-354 F223V/L249F) above, with V198F, E220L, F224A counted along it

The molecule DIEGLVEKLNRVQSSGAHDQRGLLRKEDLVLPEFLQ (domain or fragment, UniProt O08773 496-531, looked up, also: 6-IAF fluorescein on the unique Cys (not in given chain)) [GoLoco motif of RGS14 (496-531, Tenascin fusion) L503K] had a Kd in the test with Gαi1 K248E, S252L of 80 ± 10 nM.
Consider DIEGLVELLNRVQSSGAHDQRGLTRKEDLVLPEFLQ (domain or fragment, UniProt O08773 496-531, looked up, also: 6-IAF fluorescein on the unique Cys (not in given chain)) [GoLoco motif of RGS14 (496-531, Tenascin fusion) L519T], for which the Kd in the test with Gαi1 I78S, A111Q is more than 20000 nM; in test [1], 16000 ± 5000 nM.
DIEGLVELLNRMQSSGAHDQRGLLRKEDLVLPEFLQ (domain or fragment, UniProt O08773 496-531, looked up, also: 6-IAF fluorescein on the unique Cys (not in given chain)) [GoLoco motif of RGS14 (496-531, Tenascin fusion) V507M]: the Kd was determined as 50 ± 10 nM with Gαi1 E245L, L249A and 1040 ± 60 nM in test [1].
As to DIEGLVELLNRVQSSGAHDQRGLLRKEDLVLPEFLQ (domain or fragment, UniProt O08773 496-531, looked up, also: 6-IAF fluorescein on the unique Cys (not in given chain)) [GoLoco motif of RGS14 (residues 496-531) expressed as a fusion to Tenascin, wild type], the Kd in test [1] was determined as 100 ± 20 nM; in the test with Gαi1 K248E, S252L, 320 ± 60 nM.
Regarding DIEGLVELANRVQSSGAHDQRGLLRKEDLVLPEFLQ (domain or fragment, UniProt O08773 496-531, looked up, also: 6-IAF fluorescein on the unique Cys (not in given chain)) [GoLoco motif of RGS14 (496-531, Tenascin fusion) L504A], the Kd was 2400 ± 1000 nM in test [1]; more than 5000 nM with Gαi1 F223V, L249F [2]; approximately 5000 nM with Gαi1 F223V, L249F [3].
With DIEGLVELANRVQSSGAHDQRGLLRKEDLVLPEWLQ (domain or fragment, UniProt O08773 496-531, looked up, also: 6-IAF fluorescein on the unique Cys (not in given chain)) [GoLoco motif of RGS14 (496-531, Tenascin fusion) L504A, F529W], the dissociation constant (Kd) in test [1] is more than 5000 nM; in test [4], 40 ± 100 nM; in test [5], approximately 5000 nM.
